Source: paper PMC12846707

Experiments:
[1] = biological target: Recombinant C4b β chain (pig); assay: SPR; Biacore 8K, single-cycle; C4bα and C4bβ covalently immobilised on CM5 chip (about 1500 RU); CR1-like fragments or mutant as mobile phase, 1.56 × 10^-2 to 4 μM; 25 °C; 10 mM HEPES pH 7.4, 150 mM NaCl, 0.05% Tween-20; apparent KD = kd/ka
[2] = biological target: Recombinant C4b α chain (pig); assay: as above

Kd [1]: 1.2 µM
Kd [2]: 0.271 µM
Substance: 118I mutant of CR1-like CCPs 1-3 (domain or fragment)
